Experiments:
LFA-1 [1] = molecular target: T1, LFA-1 (mouse (endogenous in OT-II T cells), UniProt P24063 24-1162; P11835 24-771); assay: single-molecule tracking by TIRF microscopy on supported lipid bilayers; as a1 but with 1 mM Mn^2+ and in the absence of pMHC, similar ICAM-1 density; conditions: one partner purified
T1 construct: integrin αL subunit of LFA-1, mouse; integrin β2 subunit of LFA-1, mouse; also called αL/β2 integrin; source: endogenous, on naive OT-II T cells and OT-II T cell blasts (mouse)

LFA-1 [2] = molecular target: T1, LFA-1; assay: single-molecule tracking by TIRF microscopy on supported lipid bilayers; ATTO-647N-labeled ICAM-1-GPI (300 molecules/μm^2) and I-A^b-OVA peptide (200 molecules/μm^2) in supported planar lipid bilayers; naive OT-II T cells or OT-II T cell blasts (also Rap1b KO, Mst1/2 DKO, kindlin-3 or NDR1 knock-down cells) on top; 30 frames/s for 200 s; arrests of 0.5 to 200 s counted as binding; koff from a single exponential fit …; conditions: one partner purified

T1 sequence (P24063 24-1162, chain 1 of 2): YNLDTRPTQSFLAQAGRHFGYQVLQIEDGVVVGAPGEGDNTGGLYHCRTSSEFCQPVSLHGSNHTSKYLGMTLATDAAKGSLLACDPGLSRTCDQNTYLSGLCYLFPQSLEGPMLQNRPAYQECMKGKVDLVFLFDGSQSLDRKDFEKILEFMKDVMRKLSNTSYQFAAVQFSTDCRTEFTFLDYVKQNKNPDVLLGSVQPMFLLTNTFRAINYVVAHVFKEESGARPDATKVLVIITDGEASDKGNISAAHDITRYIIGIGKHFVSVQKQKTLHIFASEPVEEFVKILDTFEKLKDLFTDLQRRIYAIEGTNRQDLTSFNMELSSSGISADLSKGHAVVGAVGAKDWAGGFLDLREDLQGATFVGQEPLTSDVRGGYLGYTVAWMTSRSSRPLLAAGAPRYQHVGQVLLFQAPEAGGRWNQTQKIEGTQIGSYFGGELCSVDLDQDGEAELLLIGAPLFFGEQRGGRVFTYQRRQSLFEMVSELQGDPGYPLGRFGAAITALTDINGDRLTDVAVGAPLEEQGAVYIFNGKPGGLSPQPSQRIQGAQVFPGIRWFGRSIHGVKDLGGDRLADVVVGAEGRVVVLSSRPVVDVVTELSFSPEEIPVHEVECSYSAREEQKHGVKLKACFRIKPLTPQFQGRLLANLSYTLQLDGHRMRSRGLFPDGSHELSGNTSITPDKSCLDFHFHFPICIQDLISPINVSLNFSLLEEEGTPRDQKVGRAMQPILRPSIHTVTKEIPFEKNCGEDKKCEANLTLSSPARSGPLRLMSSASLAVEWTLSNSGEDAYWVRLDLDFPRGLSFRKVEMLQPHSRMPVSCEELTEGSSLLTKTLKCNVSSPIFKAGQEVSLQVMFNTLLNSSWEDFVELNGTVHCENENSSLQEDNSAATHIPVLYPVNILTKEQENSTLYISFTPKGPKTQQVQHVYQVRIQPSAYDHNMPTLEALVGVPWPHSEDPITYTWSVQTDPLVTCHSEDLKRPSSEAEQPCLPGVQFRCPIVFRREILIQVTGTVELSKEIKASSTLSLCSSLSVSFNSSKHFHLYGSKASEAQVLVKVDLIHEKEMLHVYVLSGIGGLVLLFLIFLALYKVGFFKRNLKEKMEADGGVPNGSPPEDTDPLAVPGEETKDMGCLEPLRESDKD
T1 sequence (P11835 24-771, chain 2 of 2): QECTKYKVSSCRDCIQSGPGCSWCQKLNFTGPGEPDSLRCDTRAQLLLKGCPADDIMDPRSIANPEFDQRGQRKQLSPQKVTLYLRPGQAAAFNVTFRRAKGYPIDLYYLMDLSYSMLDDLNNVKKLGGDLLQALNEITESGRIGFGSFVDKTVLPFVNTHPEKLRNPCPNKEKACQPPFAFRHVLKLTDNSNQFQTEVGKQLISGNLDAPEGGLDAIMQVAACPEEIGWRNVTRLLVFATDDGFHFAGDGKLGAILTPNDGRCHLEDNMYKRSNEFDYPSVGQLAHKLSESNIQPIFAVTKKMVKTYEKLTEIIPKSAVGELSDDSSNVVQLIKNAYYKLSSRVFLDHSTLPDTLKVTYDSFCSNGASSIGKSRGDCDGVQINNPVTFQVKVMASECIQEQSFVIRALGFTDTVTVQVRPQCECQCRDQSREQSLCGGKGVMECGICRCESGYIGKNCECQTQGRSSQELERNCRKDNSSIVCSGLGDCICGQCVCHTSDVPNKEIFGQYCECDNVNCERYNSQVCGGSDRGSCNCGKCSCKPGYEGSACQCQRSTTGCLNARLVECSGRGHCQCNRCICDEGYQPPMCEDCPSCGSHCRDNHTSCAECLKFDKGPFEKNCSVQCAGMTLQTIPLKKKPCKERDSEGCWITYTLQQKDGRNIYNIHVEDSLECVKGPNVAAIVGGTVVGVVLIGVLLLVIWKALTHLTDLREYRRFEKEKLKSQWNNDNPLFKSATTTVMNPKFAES

B1: Mouse ICAM-1-GPI (ligand)
chain: QVSIHPREAFLPQGGSVQVNCSSSCKEDLSLGLETQWLKDELESGPNWKLFELSEIGEDSSPLCFENCGTVQSSASATITVYSFPESVELRPLPAWQQVGKDLTLRCHVDGGAPRTQLSAVLLRGEEILSRQPVGGHPKDPKEITFTVLASRGDHGANFSCRTELDLRPQGLALFSNVSEARSLRTFDLPATIPKLDTPDLLEVGTQQKLFCSLEGLFPASEARIYLELGGQMPTQESTNSSDSVSATALVEVTEEFDRTLPLRCVLELADQILETQRTLTVYNFSAPVLTLSQLEVSEGSQVTVKCEAHSGSKVVLLSGVEPRPPTPQVQFTLNASSEDHKRSFFCSAALEVAGKFLFKNQTLELHVLYGPRLDETDCLGNWTWQEGSQQTLKCQAWGNPSPKMTCRRKADGALLPIGVVKSVKQEMNGTYVCHAFSSHGNVTRNVYLTVLYHSQNN
modifications: GPI anchor; labeled with ATTO-647N-NHS-ester
In the case of B1, the “fold increase of binding durations longer than 10 s with Mn^2+” value (LFA-1 [1]) is reported as 2 fold and the koff (LFA-1 [2]) is reported as 0.032 s⁻¹.

Reference: paper PMC5376635, “NDR1-Dependent Regulation of Kindlin-3 Controls High-Affinity LFA-1 Binding and Immune Synapse Organization” (Molecular and Cellular Biology, 2017)
